In patent publication US20250152743A1, “SYNPOPTOSIS CIRCUITS FOR PROGRAMMABLE CELL DEATH CONTROL” (California Institute of Technology, priority 2023, published 2025):

Experiments:
[1] = tested on: co-culture of engineered HEK cells that stably express Input 1, Input 2, or both, and wildtype cells; experiment: Synpoptosis gates in co-culture of four input-state cell lines, Annexin flow cytometry; assay type: cell-based, human; details: Input 1 TEVP (Cherry), Input 2 TVMVP (Citrine)
Method: As a proof of concept for combinatorial targeting, the synpoptosis gates were tested in a co-culture of engineered HEK cells that stably express Input 1, Input 2, or both, and wildtype cells that express neither. Input 1 with Cherry and Input 2 with Citrine were co-expressed, such that the two fluorescent protein profiles represented input patterns (FIG. 4C, Quadrant layout). The co-culture of the four cell lines were then transfected with the synthetic apoptosis gates to analyze their killing specificity. Transfections of no caspase-3 (FIG. 4C, Mock) and active caspase-3 (FIG. 4C, Indiscriminate) were used to establish background and ceiling apoptosis levels, respectively. […] Similar killing specificities were observed when the synthetic pyroptosis gates were transfected into the co-culture (FIG. 4D).
For experiments that required stable transgene expression, stable cell lines were engineered using lentiviruses followed by antibiotic selection, or using the PiggyBac transposase system. […] The next day, the cells were co-transfected using Lipofectamine 2000 with three plasmids, pLVX-M-PURO (Addgene plasmid #125839) containing the gene of interest, the TEVP-activatable Citrine reporter for instance, psPAX2 (Addgene plasmid #12260), and pCMV-VSV-G (Addgene plasmid #8454). We kept the mass ratio of the three plasmids at 9:9:2 (450 ng:450 ng:100 ng). In some experiments involving cells stably expressing two or more transgenes, the lentiviruses were generated using multiple pLVX-M-PURO plasmids carrying different genes of interest. An alternative ratio of pLVX-M-PURO:psPAX2:pCMV-VSV-G was 2:2:1 (2.4 μg:2.4 μg:1.2 μg), which was used to generate lentiviruses for stable integration of IL-1β and IL-18 genes. […] The RasGC line, or HEK293 cells stably expressing human H-Ras G12V mutant along with a Cerulean fluorescence marker, was generated using the PiggyBac method. […] One week later, the cells were sorted based on Cerulean fluorescence to obtain the final RasGC line. […]

[2] = tested on: sender and receiver HEK cells
Method: For experiments that involved circuit senders and receivers, sender HEK cells were seeded on a 12-well plate at a density of 0.6 million cells per well (day 1). On the following day (day 2), using Lipofectamine 3000 (Thermo Fisher), we transfected the sender cells with 450 ng of pLVX-M-PURO plasmid containing the cargo, 450 ng of M-psPAX2, and 100 ng of pCMV-VSV-G. To generate VLPs encoding two cargoes, we performed similar transfections using two cargo-containing plasmids, each at 225 ng. At 8 hours post transfection, we removed the media containing residual Lipofectamine particles, washed the cells gently with fresh media, and replaced the media. One day after transfection of sender cells (day 3), we typically seeded receiver HEK cells on a 24-well plate at a density of around 0.3 million cells per well or on a 96-well plate at around 75,000 cells per well. We also tried other receiver densities, in which case we needed to dilute the cells if they approached confluency during the course of the experiment. Two days after transfection of sender cells (day 4), we collected the sender supernatant, centrifuged it at 3,000 g for 5 min to remove cell debris, and passed it through a cellulose acetate filter with 0.45 μm pore size (VWR). […] After about 40 hours, we collected the co-cultured cells, stained them with Sytox, and analyzed cell death by flow cytometry. […]

HEK cells = experiment: Transient DNA transfection of HEK cells, Annexin/Sytox staining, flow cytometry; assay type: cell-based, human
Method: HEK cells were transiently co-transfected with DNA encoding the circuits, often along with Cherry, a fluorescent protein marker, and cells were analyzed by flow cytometry 16 to 24 hours later. To quantify cell death, the cells were strained with Annexin, Sytox, or both. Annexin stains apoptotic cells by binding to phosphatidylserine exposed on the outer leaflet, and pyroptotic cells by binding to phosphatidylserine in the inner leaflet after membrane permeabilization. In contrast, Sytox, a membrane-impermeable dye, primarily stains pyroptotic cells. Therefore, apoptotic cells are typically Annexin-high and Sytox-low, while pyroptotic cells are Annexin-high and Sytox-high (FIG. 7B). For simplicity, in experiments involving only a single death mode, a single relevant dye was often used. To focus on cells influenced by the circuits, the fraction of Annexin- or Sytox-positive cells was calculated after gating on the fluorescent co-transfection marker (FIG. 7C).
On the day before transfection, HEK cells were seeded at a density of 0.3-0.6 million cells per well on a 12-well plate, 0.1-0.3 million cells per well on a 24-well plate, or 15,000-50,000 cells per well on a 96-well plate. The cells were allowed to attach to the plate overnight, for at least 8 hours. On the day of transfection, we treated the cells with purified DNA plasmids encoding circuit components. In addition to plasmids encoding circuit components, we often included a plasmid encoding a fluorescent co-transfection marker, at roughly 50 ng DNA per well on a 24-well plate. Given the different number of molecular components in each synthetic circuit and their various relative ratios, the total amount of DNA ranged from 50 to 1 μg per well on a 24-well plate, and was scaled by […] when other 12-well or 96-well plates were used, respectively. On the same plate, we often equalized the total amount of DNA across all transfected wells, using a filler plasmid encoding the neomycin resistance gene. To transfect cells with plasmid DNA, we used three types of transfection reagents—Lipofectamine 2000 (Thermo Fisher), Lipofectamine 3000 (Thermo Fisher), and FuGENE HD (Promega), according to manufacturers' instructions. Briefly, for a typical transfection experiment on a 24-well plate, we mixed plasmids and the transfection reagent, around 200 ng of DNA per 1 μl of Lipofectamine 2000, in 25 μl of Opti-MEM reduced serum medium (Thermo Fisher), incubated the mixture for 5-10 min at room temperature, and then added another 25 μl of Opti-MEM before transferring the mixture dropwise to culture wells. We also performed some transfection experiments using the Lipofectamine 3000 kit (Thermo Fisher), at a ratio of 2,000 ng of DNA, 2 ul of 4 ul of P3000, and 3 μl of Lipofectamine 3000. We similarly diluted the mixture in Opti-MEM before adding it to cells. For transfection with FuGENE, we used a ratio of 4 μl FuGENE:1 μg of DNA, and incubated the DNA-FuGENE mixture at room temperature for 5 min before transfection. To enable protein expression from plasmids with a doxycycline-inducible promoter, doxycycline was added to the cell culture at a final concentration of 100 ng/mL. In experiments involving Q-VD-OPh, the compound was added to the cell culture at a final concentration of 30 μM, immediately after the cells received the transfection mixture. To transfect cells with in vitro transcribed mRNA, Lipofectamine MessengerMax (Thermo Fisher) was used. Briefly, for transfection of one well in a 96-well plate, 0.1 μL of Lipofectamine MessengerMAX was diluted in 1.25 μL Opti-MEM and incubated for 10 minutes at room temperature. mRNA was then added to Opti-MEM to the appropriate conditions at the following amounts: 12.5 ng of fluorescent co-transfection marker, 56.25 ng of protease, and 56.25 ng of engineered executioner. Diluted mRNA was then added to diluted MessengerMAX reagent and incubated for 5 minutes at room temperature before addition to Jurkat or THP-1 cells in RPMI media. […]

B1: AND-gated caspase-3: TEVP-activatable caspase-3 fused to a TVMVP-removable degron; SEQ ID NO: 23 (protein)
chain: MGSENTENSVDSKSIKNLEPKIIHGSESMDSGISLDNSYKMDYPEMGLCIIINNKNFHKSTGMTSRSGTDVDAANLRETFRNLKYEVRNKNDLTREEIVELMRDVSKEDHSKRSSFVCVLLSHGEEGIIFGTNGPVDLKKITNFFRGDRCRSLTGKPKLFIIQACRGTELDCGIETENLYFQSGVDDDMACHKIPVEADFLYAYSTAPGYYSWRNSKDGSWFIQSLCAMLKQYADKLEFMHILTRVNRKVATEFESFSFDATFHAKKQIPCIVSMLTKELYFYHGGSGLETVRFQSGSGSISLIAALAVDYVIGMENAMPWNLPADLAWFKRNTLNKPVIMGRHTWESIGRPLPGRKNIILSSQPSTDDRVTWVKSVDEAIAACGDVPEIMVIGGGRVIEQFLPKAQKLYLTHIDAEVEGDTHFPDYEPDDWESVFSEFHDADAQNSHSYCFEILERR
- killing specificity, Annexin staining [1]: triggered apoptosis predominantly in double-positive cells

B2: OR-gated caspase-3: tandem TEVP and TVMVP cleavage sites at the inter-subunit linker of caspase-3; SEQ ID NO: 24 (protein)
chain: MGSENTENSVDSKSIKNLEPKIIHGSESMDSGISLDNSYKMDYPEMGLCIIINNKNFHKSTGMTSRSGTDVDAANLRETFRNLKYEVRNKNDLTREEIVELMRDVSKEDHSKRSSFVCVLLSHGEEGIIFGTNGPVDLKKITNFFRGDRCRSLTGKPKLFIIQACRGTELDCGIETENLYFQSETVRFQSGVDDDMACHKIPVEADFLYAYSTAPGYYSWRNSKDGSWFIQSLCAMLKQYADKLEFMHILTRVNRKVATEFESFSFDATFHAKKQIPCIVSMLTKELYFYH
- killing specificity, Annexin staining [1]: caused apoptosis in single-positive and double-positive cells, sparing only double-negative cells

B3: caspase-3 variant designed to activate in the presence of Input 1 and the absence of Input 2: TEVP-removable degron on small subunit, TVMVP-activatable N-degron on large subunit (SEQ ID NOs: 25, 26) (protein)
chain 1: MGSETVRFQYHKSGAWKLPVSLVKEQLEKKLQALEKKLAQLEWKNQALEKKLAQENTENSVDSKSIKNLEPKIIHGSESMDSGISLDNSYKMDYPEMGLCIIINNKNFHKSTGMTSRSGTDVDAANLRETFRNLKYEVRNKNDLTREEIVELMRDVSKEDHSKRSSFVCVLLSHGEEGIIFGTNGPVDLKKITNFFRGDRCRSLTGKPKLFIIQACRGTELDCGIETD
chain 2: MGSSGVDDDMACHKIPVEADFLYAYSTAPGYYSWRNSKDGSWFIQSLCAMLKQYADKLEFMHILTRVNRKVATEFESFSFDATFHAKKQIPCIVSMLTKELYFYHGGSGALKKELQANKKELAQLKWELQALKKELAQGGSGLENLYFQSGSGSISLIAALAVDYVIGMENAMPWNLPADLAWFKRNTLNKPVIMGRHTWESIGRPLPGRKNIILSSQPSTDDRVTWVKSVDEAIAACGDVPEIMVIGGGRVIEQFLPKAQKLYLTHIDAEVEGDTHFPDYEPDDWESVFSEFHDADAQNSHSYCFEILERR
- killing specificity, Annexin staining [1]: restricted apoptosis to the corresponding cells

B4: tobacco etch virus protease (protein)
chain: MGSGESLFKGPRDYNPISSTICHLTNESDGHTTSLYGIGFGPFIITNKHLFRRNNGTLLVQSLHGVFKVKNTTTLQQHLIDGRDMIIIRMPKDFPPFPQKLKFREPQREERICLVTTNFQTKSMSSMVSDTSCTFPSSDGIFWKHWIQTKDGQCGSPLVSTRDGFIVGIHSASNFTNTNNYFTSVPKNFMELLTNQEAQQWVSGWRLNADSVLWGGHKVFMVKPEEPFQPVKEATQLMNS
notes: viral input protease
- sender cell death [2]: neither circuit component alone triggered substantial sender cell death
- activation of cognate engineered GSDMs containing the cleavage sites (HEK cells; tev, tvmv and hcv sites): orthogonally activated their cognate engineered GSDMs

B5: TEVP-activatable GSDMA: GSDMA with TEVP cleavage site between N-terminal and C-terminal domains; SEQ ID NO: 16 (protein)
chain: MGSPVFEDVTRALVRELNPRGDLTPLDSLIDFKHFRPFCLVLRKRKSTLFWGARYVRTDYTLLDLLEPGSSPSDLTDSGNFSFKNMLDVQVQGLVEVPKTVKVKGTAGLSQSSTLEVQTLSVAPSALENLKKERKLSADHSFLNEMRYHEKNLYVVMEAVEAKQEVTVEQTGNANAIFSLPSLALLGLQGSLNNNKAVTIPKGCVLAYRVRLLRVFLFNLWDIPYICNDSMQTFPKIRRVPCSAFISPTQMISEEPEEEKLIGEENLYFQSMHEDFKTLKEEVQRETQEVEKLSPVGRSSLLTSLSHLLGKKKELQDLEQKLEGALDKGQKVTLEALPKDVLLSKDAMDAILYFLGALTELTEEQLKILVKSLEKKILPVQLKLVESTLEQNFLQDKEGVFPLQPDLLSSLGEEELTLTEALVGLSGLEVQRSGPQYAWDPDTRHNLCALYAGLSLLHLLSRKSNALTYCALS
- sender cell death [2]: neither circuit component alone triggered substantial sender cell death
- mode of cell death, Sytox and Annexin double staining (HEK cells; background of TEVP activating TEVP-activatable caspase-3): converted apoptosis to pyroptosis
- cell death without the activating TEVP (HEK cells; expressed at high levels indicated by co-transfected Cherry): induced noticeable cell death even without the activating TEVP
